Laboratory results taken from publication PMC9119445, “Ustilago maydis telomere protein Pot1 harbors an extra N-terminal OB fold and regulates homology-directed DNA repair factors in a dichotomous and context-dependent manner”.

B1: TTAGGG4 (G4) (ssDNA)
DNA: TTAGGGTTAGGGTTAGGGTTAGGG

Experiments:
[1] = biological target: Ustilago maydis Rad51 (U. maydis) (UniProt Q99133)
[2] = biological target: UmPot1 N-terminal fragment (OB-N) (Ustilago maydis, UniProt A0A0D1CUA9 1-350); assay: EMSA; 25 mM HEPES-KOH pH 7.5, 5% glycerol, 3 mM MgCl2, 0.1 mM EDTA, 1 mM DTT, 0.5 ug/ul BSA, 1-10 nM probe, 22 C, 15 min; 6% native PAGE in 1x TBE; settings: protein: recombinant; tags: C-terminal FLAG; His6-SUMO removed by ULP1; label: 5'-32P
UmPot1 OB3 = UmPot1 OB3 (Ustilago maydis, UniProt A0A0D1CUA9 701-1050); assay: as above; settings: protein: recombinant; tags: C-terminal FLAG; His6-SUMO removed by ULP1; label: 5'-32P
UmPot1 OB12 (OB1-OB2) = UmPot1 OB12 (OB1-OB2) (Ustilago maydis, UniProt A0A0D1CUA9 351-700); assay: as above; settings: protein: recombinant; tags: C-terminal FLAG; His6-SUMO removed by ULP1; label: 5'-32P

Ustilago maydis Rad51 (U. maydis), sequence (Q99133 whole entry, the tested form may be a part): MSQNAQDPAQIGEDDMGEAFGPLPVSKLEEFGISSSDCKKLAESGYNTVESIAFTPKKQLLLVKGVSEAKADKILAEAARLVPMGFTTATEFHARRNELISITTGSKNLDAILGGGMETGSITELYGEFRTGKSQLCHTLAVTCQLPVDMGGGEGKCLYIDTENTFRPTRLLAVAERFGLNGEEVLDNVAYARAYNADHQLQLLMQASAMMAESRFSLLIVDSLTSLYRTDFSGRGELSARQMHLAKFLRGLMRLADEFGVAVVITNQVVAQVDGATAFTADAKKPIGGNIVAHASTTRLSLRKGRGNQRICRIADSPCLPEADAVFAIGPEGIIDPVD

Row | Molecule | strand exchange activity of Rad51 (oligonucleotide-based assay, 70-mer ssDNA and labeled 39-mer dsDNA), stimulation by Pot1 [1] [fold] | binding result [2] | binding result (UmPot1 OB3) | binding result (UmPot1 OB12 (OB1-OB2))
1 | Ustilago maydis Pot1 with a C-terminal FLAG tag (Pot1-FLAG) (natural protein) | 2 | – | – | –
2 | B1 | – | no binding | no binding | binds
